Laboratory results as given in patent US20040133357A1 (ABMAXIS, published 2004).
Changes are numbered by the printed parent chain. Values belong to the binder of their own block, whether it stands above or below them.

Columns and labels:
[1] = target: T1, purified recombinant human VEGF165 (human, UniProt P15692 27-191, glycosylated); test: SPR (BIAcore), scFv over VEGF immobilized on CM5 chip; reference hAB1
T1 construct: mature; Bought from Calbiochem; also called VEGF protein (Calbiochem); homodimeric VEGF protein
T1 sequence (P15692 other isoform, or with tags, fused parts or gaps limits assumed): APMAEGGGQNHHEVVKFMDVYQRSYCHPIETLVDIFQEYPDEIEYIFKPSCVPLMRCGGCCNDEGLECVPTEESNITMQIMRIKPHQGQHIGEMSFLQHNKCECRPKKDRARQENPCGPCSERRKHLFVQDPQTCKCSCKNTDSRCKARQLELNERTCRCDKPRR
Experimental: (§1) Antibody fragments in the format of single chain were expressed as described below and purified. The measurement was done by measuring the change of SPR units (y-axis) vs time (x-axis) when a purified antibody binds its antigen (VEGF) immobilized on the CM5 biochip at 25° C. Kd values were calculated by the […].
(§2) BIAcore Biosensor Assay was used to determine antibody affinity. VEGF protein (purchased from Calbiochem) was coupled to a CM-5 biosensor ship by amine coupling. After immobilization, CM-5 chips with 200 to 1000 response unites of VEGF were kept at 4° C. before use. All experiments were performed at 25° C. or 35° C. Each sample in PBS buffer was injected over VEGF surface at a flow rate of 20 ul/min using Biacore 1000 (Biacore AB, Sweden), and bound antibodies were removed from chip by 10 ul of glycine-HCl, PH 1.5 at the end of each cycle. Each sensorgram was recorded and normalized to a PBS base line.

[2] = target: T1, purified recombinant human VEGF165; test: SPR (BIAcore), scFv over VEGF immobilized on CM5 chip, 25 C; reference hAB1
Experimental: as §2

[3] = target: T1, purified recombinant human VEGF165; test: SPR (BIAcore), purified scFv over VEGF immobilized on CM5 chip, 25 C
Experimental: as §1, §2

fold higher binding affinity than hAB1 [1]: 4 fold
fold higher binding affinity than the parental/reference antibody (hAB1) [2]: ~4 fold
Kd [3]: 3.1 nM
hAB1 Kd/Variant Kd [3]: 4.2
koff [3]: 0.000115 s⁻¹
kon [3]: 37400 M⁻¹ s⁻¹
B1: hAB3 (scFv)
scFv: EVQLVQSGGGVVQPGGSLRLSCAASGYTFTNYGMNWIRQAPGKGLEWVGWINTYTGEPTYAADFKRRVTFSLDTSKSTAYLQLNSLRAEDTAVYYCAKYPHYYGSSHWYFDVWGQGTLVTVSSGGGGSGGGGSGGGGSDIQMTQSPSSLSASVGDRVTITCSASQDISNYLNWYQQKPGKAPKVLIYFTSSLHSGVPSRFSGSGSGTDFTLTISSLQPEDFATYYCQQYSTVPWTFGQGTKVEIK
notes: Single chain format; not shown: HA-His6 tag at C-terminus

fold higher binding affinity than hAB1 [1]: 2 fold
Kd [3]: 26 nM
hAB1 Kd/Variant Kd [3]: 0.5
koff [3]: 0.000104 s⁻¹
kon [3]: 4000 M⁻¹ s⁻¹
B2: hAB4 (scFv)
scFv: B1 scFv with E1Q, S21T, I37V, V68F, F70I, T78Q, L83M
notes: as for B1
